Data on three molecules can be found in paper PMC2635920 (Nature structural & molecular biology, 2009).

The chains are these.
B2: Dsl1ΔC (Dsl1p residues 1-361) (domain or fragment, S. cerevisiae, UniProt P53847 1-361, looked up)
chain: MESLFPNKGEIIRELLKDPLILKNDSKRSNGSELELDSSDLLQREAILANELNILDNLKTFLNLIKEVKTNLNILELENCYYSLQSLRKKMRNNAAYLKQSFNFQQSISTYVDTLHLELVSTLYKILTNGFWKITENSIQFTPTVEWGKDKVHIEYDTFMDFVAQQYFPKGSLDNQAWFILDMTSADSQEQVRAKLNTIMKEYMNLSRIVSMIKNSIFISGKEISYENEKNILVFSKSSSHGQHCVSTVLTSFEAVCDFMLDGLAFRDRKTLSYELGPLFNTEFTKFVKNNASIILESLDSPLKNLVSVINNKLTRLVAKSEVTNWTHSGKEIQDLLMNKQLYYNLLLDKVLESHISEIRS

Assay [1] has as its target T1, Tip20p, full-length (residues 1-701) (S. cerevisiae, UniProt P33891 1-701).
T1 sequence (looked up): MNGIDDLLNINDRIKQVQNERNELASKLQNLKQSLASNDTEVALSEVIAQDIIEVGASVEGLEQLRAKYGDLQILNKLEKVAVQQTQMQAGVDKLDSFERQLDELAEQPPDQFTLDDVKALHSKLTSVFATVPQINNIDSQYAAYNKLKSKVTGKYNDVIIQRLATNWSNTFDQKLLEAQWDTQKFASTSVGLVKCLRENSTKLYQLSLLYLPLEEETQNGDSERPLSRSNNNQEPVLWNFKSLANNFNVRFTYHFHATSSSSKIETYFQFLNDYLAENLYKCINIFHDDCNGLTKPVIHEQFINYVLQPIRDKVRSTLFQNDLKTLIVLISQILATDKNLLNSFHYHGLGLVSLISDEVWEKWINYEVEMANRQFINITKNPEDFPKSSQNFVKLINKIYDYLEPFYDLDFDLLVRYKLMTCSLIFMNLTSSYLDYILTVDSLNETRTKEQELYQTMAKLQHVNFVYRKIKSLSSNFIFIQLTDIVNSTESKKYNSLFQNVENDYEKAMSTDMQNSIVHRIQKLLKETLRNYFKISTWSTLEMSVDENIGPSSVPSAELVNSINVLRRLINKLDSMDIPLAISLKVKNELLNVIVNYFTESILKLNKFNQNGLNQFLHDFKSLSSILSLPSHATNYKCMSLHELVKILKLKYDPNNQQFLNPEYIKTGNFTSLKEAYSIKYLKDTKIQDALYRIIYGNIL
As to the kind of experiment: SEC. Background: In gel filtration, larger molecules generally elute earlier.

Assay [2] has as its target intact Dsl1p complex (Tip20p-Dsl1p-Sec39p) (S. cerevisiae, UniProt P33891 1-701; P53847 1-754; Q12745 1-709). As to the kind of experiment: SEC.
Assay [3] has as its target T2, Tip20ΔN (Tip20p residues 82-701) (S. cerevisiae, UniProt P33891 82-701).
T2 sequence (looked up): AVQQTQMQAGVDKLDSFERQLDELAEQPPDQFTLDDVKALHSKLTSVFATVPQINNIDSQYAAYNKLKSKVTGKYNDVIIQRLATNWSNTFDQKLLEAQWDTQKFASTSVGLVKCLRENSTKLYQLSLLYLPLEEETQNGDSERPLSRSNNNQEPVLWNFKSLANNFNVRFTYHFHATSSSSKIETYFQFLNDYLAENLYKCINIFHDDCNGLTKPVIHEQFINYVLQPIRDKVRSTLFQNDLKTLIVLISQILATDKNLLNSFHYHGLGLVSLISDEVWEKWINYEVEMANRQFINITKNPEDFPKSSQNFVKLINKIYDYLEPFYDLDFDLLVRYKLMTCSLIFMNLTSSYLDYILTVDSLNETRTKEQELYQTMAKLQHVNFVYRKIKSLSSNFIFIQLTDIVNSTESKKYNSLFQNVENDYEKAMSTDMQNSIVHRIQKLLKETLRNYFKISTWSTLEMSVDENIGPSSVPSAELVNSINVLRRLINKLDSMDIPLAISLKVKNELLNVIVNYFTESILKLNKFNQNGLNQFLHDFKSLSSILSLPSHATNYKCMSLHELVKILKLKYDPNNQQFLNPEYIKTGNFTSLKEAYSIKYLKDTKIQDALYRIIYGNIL
As to the kind of experiment: SEC.

The target in assay [4] is T1, Tip20p, full-length (residues 1-701). As to the kind of experiment: AUC.
The target in assay [5] is B2. As to the kind of experiment: pull-down.

In general, stoichiometry N refers to the number of molecules, sites or subunits per partner or assembly.

Chain of intact Dsl1p complex (Tip20p-Dsl1p-Sec39p) (Q12745 whole entry, the tested form may be a part, one chain of several): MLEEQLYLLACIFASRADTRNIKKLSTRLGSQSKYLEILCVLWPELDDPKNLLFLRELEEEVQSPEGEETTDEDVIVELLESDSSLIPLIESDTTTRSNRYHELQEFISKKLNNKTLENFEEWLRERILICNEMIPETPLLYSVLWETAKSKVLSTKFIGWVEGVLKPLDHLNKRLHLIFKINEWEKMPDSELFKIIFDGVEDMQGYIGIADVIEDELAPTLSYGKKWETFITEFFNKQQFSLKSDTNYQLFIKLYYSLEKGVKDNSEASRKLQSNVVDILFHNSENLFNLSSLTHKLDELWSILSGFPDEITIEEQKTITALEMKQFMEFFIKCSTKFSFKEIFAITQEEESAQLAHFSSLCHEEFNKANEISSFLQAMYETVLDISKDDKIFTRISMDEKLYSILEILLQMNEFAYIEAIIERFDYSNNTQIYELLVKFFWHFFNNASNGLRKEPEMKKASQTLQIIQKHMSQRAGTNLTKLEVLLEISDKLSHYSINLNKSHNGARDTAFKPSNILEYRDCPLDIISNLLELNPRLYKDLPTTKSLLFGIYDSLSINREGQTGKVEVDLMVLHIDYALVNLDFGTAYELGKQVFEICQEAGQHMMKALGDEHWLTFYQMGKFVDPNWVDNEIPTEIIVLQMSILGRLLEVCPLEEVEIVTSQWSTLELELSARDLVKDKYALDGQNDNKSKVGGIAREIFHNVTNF

B1: Sec20ΔC (cytoplasmic domain of Sec20p, residues 1-275) (domain or fragment, S. cerevisiae, UniProt P28791 1-275, looked up)
chain: MVVTFLQDLEVLQDALLNNLQKLSAISRRKESGESKHDNKDSFAAIANEHNDEEEEIEFEDLVNIIESKVSDFESVLKCSIVEMTYKYPELKLQWEKSPRYDQCDKLHIVKLDKQMNEDIYAQLVEELDFVLQFVDWFYCYRLKVKEILRQHHKRDLAWNDEKRDRAIKFHAVDYDKLHQGTSSSSSLTSTSMEKASTREKLLSKTKQLTNNLVRGNQILQSGILQSDLNLDELRAQTNSLTQIDDKYTQFETVFKKTADLVKVLENASHQEKRD
For B1, the binding result in assay [1], in assay [2] and in assay [3] was “binds” each time. For the molecule B2, in assay [4], the “stoichiometry N” value was 1. Regarding MNGIDDLLNINDRIKQVQNERNELASKLQNLKQSLASNDTEVA (domain or fragment, S. cerevisiae, UniProt P33891 1-43, looked up) [GST-Tip20p (residues 1-43)], in assay [5], the binding result is recorded as “binds”.
